Test results taken from the supplement of paper PMC9170038.

Tested on: MS2 coat protein
Assay: apparent KD of MS2 coat protein; designed switch direction (-1 OFF switch, 1 ON switch): 1; higher = weaker reporter binding
How it was run: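 Designed RNA switches were transcribed on Illumina chips by stalled E. coli RNA polymerase and titrated with SNAP-549-labelled MS2 coat protein from 0.7 or 1.5 nM, doubling to 3 µM. Step length ran from 0.8–1.5 h at the lowest concentration to 10–20 min at the highest. The apparent KD is the median over clusters for each design, from curve-fitted normalised cluster fluorescence.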

[1] = input ligand: microRNA oligo, concentration not stated
[2] = Eterna round: R95, input ligand: FMN 200 uM
[3] = Eterna round: R95, input ligand: microRNA oligo, concentration not stated
[4] = Eterna round: R95, input ligand: none

Row | Sequence | apparent KD of MS2 coat protein (input ligand: FMN 200 uM) [nM] | apparent KD of MS2 coat protein [1] [nM] | apparent KD of MS2 coat protein (input ligand: none) [nM] | apparent KD of MS2 coat protein [2] [nM] | apparent KD of MS2 coat protein [3] [nM] | apparent KD of MS2 coat protein [4] [nM]
1 | UGAUCGCUUGGAGGAUAUCCAACUAUCCUAGUUGGAGAAGGCCAAGCUACAGAGCUAAGCUUGGAAGUCACUUCGAAUCAACAC [pwkr ssNG1 F9.4] (Eterna round: R96, puzzle: Same State NG 1) | 2.23 | 129 | 155 | – | – | –
2 | GUAGCAGGCACAGGAUAUGUUGACCAGGGAGUACAUGAGGAUCACCCAUGUCCGACACACCGGCAAUAGAAGGGUGAGUGGCAG [Eternabot solution 17] (Eterna round: R96, puzzle: Same State NG 2) | 35.8 | 44.9 | 78.1 | – | – | –
3 | ACAUGAGAUGGAGGAUAUGUUGUACCUACAUGUGACAUGAGGAUCACCCAUGUGGUAAGUAUGAUACAGAAGGCCAAGAUAUGU [Equivalance 59 - Jieux - Same State NG 2] (Eterna round: R96, puzzle: Same State NG 2) | 16.5 | 15.8 | 27.2 | – | – | –
4 | UUUAGUUGCGGGCAGGAUAUGUAUUAAAAUACAUGAGGAUCACCCAUGUGAGGUCAUAACGACCUACAGAAGGGCCAAUCGCGAC [Laonerce - 15] (puzzle: Same State 2) | – | – | – | 17.2 | 64.4 | 86.1
5 | GGUGCAAUAAACGCCUACAUGAGGAUCACCCAUGUAUGUAGGCAGGAUAUCGUUUGCAAAGCAAACGAGAAGGGCUGUAGUACC [Mat - Same State NG 3 - JL Mod - D41] (Eterna round: R96, puzzle: Same State NG 3) | 51.5 | 82.3 | 142 | – | – | –
6 | AAGUAACAUGAGGAUCACCCAUGUGAGGUGAGCGUAGGAUAUCGAGGAGGAAGGGUGGAGCGAGAAGGACGAGAAG [JR_SS1_Sub097] (puzzle: Same State 1) | – | – | – | 114 | 262 | 402
7 | AACAAUCUAUCUGAGGAUAUCAUGUCAAAGACAUGAGGAUCACCCAUGUACCAGGAAACUGGUUAUGAGAAGGCAGAUAGAUUGA [SS2: 1115] (Eterna round: R96, puzzle: Same State 2) | 48.2 | 596 | 932 | – | – | –
8 | UCUUGGUUUUUGCUCGUUUUUUGUGUUGAACAUGAGGAUCACCCAUGUAUUGUACAGUCCAGUUUGAUAAUGGUCCG [JMF 56] (puzzle: Sensor for hsa-mir-208a) | – | – | – | 39 | 33.3 | 44.3
9 | AAAGUACAUGAGGAUCACCCAUGUCCCAAUGAAUAAGGAUAUACGAAAAUAAAAUAAAAUGUAGAAGGUAUAAUAG [Same State 1 #1] (puzzle: Same State 1) | – | – | – | – | 30.5 | –
10 | UUUGGGUGGCUGGAGGAUAUUCGAGUGGUAACAUGAGGAUCACCCAUGUGUCGCGCGGUACACGAGGAGAAGGCUGGCGGCCGUU (puzzle: Same State 2) | – | – | – | – | 41.7 | –
11 | GGCCUGAGUCAAGGAUAUGCUACCGUUUCGGUAGCAGAAGGUGAUCACAUGAGGAUCACCCAUGUUUACGCGAAGACGCGCGCC (Eterna round: R96, puzzle: Same State NG 1) | 128 | 56.7 | 35.7 | – | – | –
12 | UUUAGUUGCGCGCAGGAUAUGUAUUAAUAUACAUGAGGAUCACCCAUGUGAGACCAAAUAGGUCUGCAGAAGGGCGAAUCGCGAC [Laonerce - 28] (puzzle: Same State 2) | – | – | – | 45.4 | 139 | 199
13 | GCUAGAAAUAAAGCCAACAUGAGGAUCACCCAUGUAUGUUGGUAGGAUAUCGUAUGCAAAGCAUACGAGAAGGGCUAAUCUAGC [Mat - Same State NG 3 - JL Mod - D66] (Eterna round: R96, puzzle: Same State NG 3) | 90.8 | 57.4 | 90.2 | – | – | –
14 | GGCAAUCGCAUUCGAUUGCCUGAGCAUGUACAUGAGGAUCACCCAUGUCAUGUACAGGCUUUUUGCUCGUACUUAUA (puzzle: Sensor for hsa-mir-208a) | – | – | – | 91.6 | 14.9 | 135
15 | GGAGCCGGCCUAGGAUAUUUCAUUAAAUAACAUGAGGAUCACCCAUGUAGGCCAGAAGGCCUUGGGAAGAAGGAGGUCGGCUCC [Loop Effect - U24,U28] (Eterna round: R96, puzzle: Same State NG 2) | 12.2 | 35 | 46.3 | – | – | –
16 | UUGAAGAAUUAAGGAUAUUGAGUACAUAUGUUUAACAUGAGGAUCACCCAUGUGGGUUGCGGUAUCGAGAAGGUAAAAUACUAG [Mat - same State NG 2 - JL mod - D73] (Eterna round: R96, puzzle: Same State NG 2) | 156 | 126 | 87.9 | – | – | –

Row | Sequence | apparent KD of MS2 coat protein (input ligand: FMN 200 uM) [nM] | apparent KD of MS2 coat protein [1] [nM] | apparent KD of MS2 coat protein (input ligand: none) [nM] | apparent KD of MS2 coat protein [2] [nM] | apparent KD of MS2 coat protein [3] [nM] | apparent KD of MS2 coat protein [4] [nM]
17 | UGUUGUAUUACAGGAUAUCUAGUAUGUUUAUUUAGAGAAGGGUAUUCACAUGAGGAUCACCCAUGUAUAUACGAGGAAGUUGUG [JMF's solution 38] (Eterna round: R96, puzzle: Same State NG 1) | – | 30.8 | – | – | – | –
18 | AGGCUCAGAGCAGGAUAUAUGUGGUCACAUGAGGAUCACCCAUGUCUCGAGCUUCGGCUCGAGGCAUAGAAGGGCUCUGAGCCA [SSNG2/5-B1] (Eterna round: R96, puzzle: Same State NG 2) | 963 | 22.9 | 53.9 | – | – | –
19 | UCUGAUGCCGUAGGAUAUCUAGGAUAUGGACGAGGAUCACCCGAGCAGCAUCAGCGCACCAGAGGAGAGAAGGACGCUUUGGAA [pwkr ssNG2 2F5 2FMN.21] (Eterna round: R96, puzzle: Same State NG 2) | 438 | 274 | 1190 | – | – | –
20 | GCGGAACAGGCCGACAUGAGGAUCACCCAUGUGGCCUCAUGUCAGGAUAUCGGGAAGAAGAAAACCGAGAAGGGACGGUGACGC [AK SSNG3-V2-33.2] (Eterna round: R96, puzzle: Same State NG 3) | 23.4 | 9.43 | 10.1 | – | – | –
21 | AUGGUGCAGGUACAGGAUAUGUUGCUCGUAACAUGAGGAUCACCCAUGUACCUAUGAGAUUAAAUGCAGAAGGGUGCACACCAAA [Mat - Same State 2 - Mod of UCT - D90] (puzzle: Same State 2) | – | – | – | 39.7 | 507 | 707
22 | GCUCGAUGUGUUGUCUACAUGAGGAUCACCCAUGUAGGUGCGGAGGAUAUCUACGUGCUUUAUGUAGAGAAGGUCGUAUCGAGC [SameState NG3 #86] (Eterna round: R96, puzzle: Same State NG 3) | 21.5 | 54.3 | 71.4 | – | – | –
23 | AGUAUACAUGAGGAUCACCCAUGUCAGUAACUGACAGGAUAUGCGUUGCAUCACUGUAAUGCAGAAGGGUCUUGUA [Same State 1 - Mod of JMF's solution 1] (Eterna round: R96, puzzle: Same State 1) | 138 | 324 | 379 | – | – | –
24 | CACAAUCUAUCUGAGGAUAUCAUGAAAAAAACAUGAGGAUCACCCAUGUGCAGGAAAACUGCAUAUGAGAAGGCAGAUAGAUUGU [salish99_SS2_r3_015] (Eterna round: R96, puzzle: Same State 2) | – | 514 | – | – | – | –
25 | AUUGCUAGCACAGGAUAUCAUGCGAAAAUUGCGUGAGAAGGGUGGACACUGUCAUUCACGGAGGACAUGAGGAUCACCCAUGUC [SameState NG1 #79] (Eterna round: R96, puzzle: Same State NG 1) | 77.1 | 59 | 74.9 | – | – | –
26 | UUGCGGGAUUAAGGAUAUUGAGUACAUAUGUUUAACAUGAGGAUCACCCAUGUGGGUUGCGGUAUCGAGAAGGUAACUUACUAC [salish99_SSNG2_r04_804] (Eterna round: R96, puzzle: Same State NG 2) | 92.9 | 79.3 | 96.3 | – | – | –
27 | AAAAGAAACACAGGAUAUACCGCACUUAACGCGGUAGAAGGGUGGGACAUGAGGAUCACCCAUGUGGCCUAAGCGCCAGGCCGC [Tibiorvela] (Eterna round: R96, puzzle: Same State NG 1) | 3890 | 13.1 | 211 | – | – | –
28 | GAGUAGUUGAAAGGAUAUGGAUUAUUGUAGGAUCCAGAAGGUUUUAACAUGAGGAUCACCCAUGUAGGACUAUAUAUGUGAAUA [Parity 96 - Jieux - Same State NG 1] (Eterna round: R96, puzzle: Same State NG 1) | 15.3 | 10.2 | 15.4 | – | – | –
29 | GAGUGGCAGUUAGGAUAUACAGUGAUAAUGAUAGUAGAAGGAACAGACAUGAGGAUCACCCAUGUAGGACUAAUCCAGAGAGAG [Parity 33 - Jieux - Same State NG 1] (Eterna round: R96, puzzle: Same State NG 1) | 30.8 | 29.8 | 34.9 | – | – | –
30 | ACAUGAGACCAAGGAUAUUUUGUACCUACAUGUGACAUGAGGAUCACCCAUGUGGUAAGUAUGAGAAAGAAGGUGGAGAUAUGU [Equivalence 22 - Jieux - Same State NG 2] (Eterna round: R96, puzzle: Same State NG 2) | 22.8 | 22.5 | 37 | – | – | –
31 | AUAAAACAUGAGGAUCACCCAUGUCAACAAAGUCGAGGAUAUGGGCAAAUAAAAUAAGAACCAGAAGGCGAAUUAU [salish99_ss1_r3_036] (puzzle: Same State 1) | – | – | – | 31.6 | 423 | 1140
